Results from patent US20240075137A1.

What was measured:
[1] = target: human TIGIT on cells (human) (UniProt Q495A1); test: FACS blocking: Expi293 human TIGIT cells pre-incubated with mAb, then human PVR-m2aFc; lower gMFI = more blocking
[2] = target: human TIGIT on cells (human) (UniProt Q495A1); test: FACS titration on Expi293 human TIGIT over-expressing cells (gMFI OE:Parental); ± 95% CI; 'Fit: Fair/Good'
[3] = target: human TIGIT on cells (human) (UniProt Q495A1); test: FACS, Expi293 human TIGIT over-expressing cells
mPVRL2 HIS (mouse) [4] = target: mPVRL2 HIS (mouse) (UniProt P32507); test: ELISA: mPVRIG-mFc titrated on mPVRL2
Chain of mPVRL2 HIS (mouse) (P32507 32-351 limits assumed): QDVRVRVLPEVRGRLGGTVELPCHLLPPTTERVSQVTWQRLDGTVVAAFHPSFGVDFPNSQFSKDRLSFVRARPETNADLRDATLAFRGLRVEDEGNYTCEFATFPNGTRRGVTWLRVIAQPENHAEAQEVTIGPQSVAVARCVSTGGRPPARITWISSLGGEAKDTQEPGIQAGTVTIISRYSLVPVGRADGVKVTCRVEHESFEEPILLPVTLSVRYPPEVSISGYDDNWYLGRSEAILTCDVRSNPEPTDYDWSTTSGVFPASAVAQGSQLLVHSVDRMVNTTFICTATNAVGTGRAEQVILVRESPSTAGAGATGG

mPVRL2 HIS (mouse) [5] = target: mPVRL2 HIS (mouse) (UniProt P32507); test: ELISA: soluble receptor Fc titrated on immobilized mPVRL2 HIS
[6] = target: mPVR (recombinant protein) (mouse); test: SPR/ELISA with recombinant proteins

Chain of human TIGIT on cells (human) (Q495A1 22-141): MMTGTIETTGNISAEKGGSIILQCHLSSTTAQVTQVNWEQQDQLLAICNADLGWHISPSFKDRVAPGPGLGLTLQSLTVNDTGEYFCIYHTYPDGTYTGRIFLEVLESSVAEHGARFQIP

Work on Synagis hIgG4 (antibody) yielded a gMFI of bound PVR-m2aFc at 266 pM mAb [1] of 959, a gMFI of bound PVR-m2aFc at 1.3 nM mAb [1] of 964 and a gMFI of bound PVR-m2aFc at 6.7 nM mAb [1] of 828.
With “human PVR-m2aFc (Compugen) (from UniProt P15151 21-343) (Fc fusion)” the Kd [2] was 8.48 nM and the EC90 [3] was 158 nM.
mouse PVRIG-Fc fusion protein was tested, and the EC50 (read off the curve) (mPVRL2 HIS (mouse) [4]) was 2 nM, the EC50 (read off the curve) (mPVRL2 HIS (mouse) [5]) was 2 nM and the fold lower affinity than the interaction with mPVRL2 [6] was 10 fold.
